Results taken from US20100190689.

Assays:
Test in all cases: filter
MBNL1-42 (Homo sapiens) = target: T1, MBNL1-42 (Homo sapiens) (UniProt Q9NR56); settings: stated collectively for 41 and 42 kD isoforms
T1 sequence: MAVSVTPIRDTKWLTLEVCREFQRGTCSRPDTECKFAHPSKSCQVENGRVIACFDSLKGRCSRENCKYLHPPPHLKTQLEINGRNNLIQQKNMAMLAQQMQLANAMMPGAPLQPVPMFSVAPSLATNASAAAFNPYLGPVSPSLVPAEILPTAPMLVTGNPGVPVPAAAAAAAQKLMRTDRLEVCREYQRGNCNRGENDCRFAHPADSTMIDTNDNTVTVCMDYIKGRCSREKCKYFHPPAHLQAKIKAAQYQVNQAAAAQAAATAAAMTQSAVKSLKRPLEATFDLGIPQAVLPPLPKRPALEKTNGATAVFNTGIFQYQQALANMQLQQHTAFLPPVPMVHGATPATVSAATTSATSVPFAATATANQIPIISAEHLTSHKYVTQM

[1] = test system: T2, MBNL1-41 full length, GST cleaved (Homo sapiens), Q9NR56-5; settings: nitrocellulose filter; 50 mM Tris pH 8.0, 50 mM NaCl, 50 mM KCl, 1 mM Mg, 0.1 mM DTT; value stated for all forms tested
T2 sequence: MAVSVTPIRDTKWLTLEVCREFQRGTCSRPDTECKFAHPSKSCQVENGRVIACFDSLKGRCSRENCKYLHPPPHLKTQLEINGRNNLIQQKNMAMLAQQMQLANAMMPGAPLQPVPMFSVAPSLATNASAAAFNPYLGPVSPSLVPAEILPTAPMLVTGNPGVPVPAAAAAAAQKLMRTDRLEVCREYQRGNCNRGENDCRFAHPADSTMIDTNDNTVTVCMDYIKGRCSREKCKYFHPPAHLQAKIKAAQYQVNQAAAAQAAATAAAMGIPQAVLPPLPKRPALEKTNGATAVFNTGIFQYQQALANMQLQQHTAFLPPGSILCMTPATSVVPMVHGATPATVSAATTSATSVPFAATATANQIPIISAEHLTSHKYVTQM

[2] = test system: T3, GST-MBNL1-41-del105 deletion of C-terminal 105 aa (all four zinc fingers kept) (Homo sapiens), Q9NR56-5; settings: C-terminal deletion has no significant influence on binding; same buffer
T3 sequence: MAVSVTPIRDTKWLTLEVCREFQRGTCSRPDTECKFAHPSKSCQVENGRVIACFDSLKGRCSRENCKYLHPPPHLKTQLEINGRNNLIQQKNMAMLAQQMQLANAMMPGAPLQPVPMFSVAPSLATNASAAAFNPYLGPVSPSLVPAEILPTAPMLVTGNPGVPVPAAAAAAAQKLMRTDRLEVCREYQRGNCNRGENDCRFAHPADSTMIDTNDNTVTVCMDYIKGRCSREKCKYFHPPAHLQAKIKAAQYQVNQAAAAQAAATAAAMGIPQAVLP

[3] = test system: T4, GST-MBNL1-41 full length (Homo sapiens), Q9NR56-5; settings: GST has no significant influence on binding; same buffer
T4 sequence: T2 sequence

Measured: Kd

CUG [poly(CUG)109]
10 nM: all assays above
